Measurements published in patent US20220177587A1, “METHODS AND USES OF VARIANT CD80 FUSION PROTEINS AND RELATED CONSTRUCTS” (Alpine Immune Sciences, Inc., priority 2018, published 2022).

Legend:
CD28 [1] = molecular target: T1, CD28 (Homo sapiens, UniProt P10747); assay: Jurkat/IL2 + CHO/OKT3 +/- PD-L1 reporter assay: PD-L1-dependent CD28 costimulation; type: cell-based; design: host or cells: Jurkat cells expressing an IL-2-luciferase reporter; details: Jurkat/IL2 + CHO/OKT3/PD-L1
Method: Jurkat cells were then plated at 50 μL/well for a total of 100,000 cells per well.
To each well, 25 μL of test protein was added to the Jurkat cells. […] The Jurkat cells with test or control proteins were incubated for 15 minutes at room temperature. CHO-derived artificial antigen presenting cells (aAPC) displaying transduced cell surface anti-CD3 single chain Fv (OKT3) (i.e., no PD-L1), or OKT3 and PD-L1 (i.e., +PD-L1), were brought to 0.8×10^6 cells/mL, and 25 μL of cells were added to each well, bringing the final volume of each well to 100 μL. […] Jurkat cells and CHO cells were incubated for 5 hours at 37 degrees Celsius in a humidified 5% CO2 incubation chamber. Plates were then removed from the incubator and acclimated to room temperature for 15 minutes. 100 μL of a cell lysis and luciferase substrate solution (BioGlo luciferase reagent, Promega) were added to each well and the plates were incubated on an orbital shaker for 10 minutes. Luminescence was measured with a 1 second per well integration time using a BioTek Cytation luminometer, and a relative luminescence value (RLU) was determined for each test sample.

huCTLA4 = huCTLA4 (Homo sapiens, UniProt P16410); assay: Flow binding to CHO cells stably expressing CTLA4; design: huCTLA4 and huPD-L1, full-length mammalian surface expression constructs were generated; expressed in transfected cells; host or cells: CHO cells, lentiviral transduction, sorted to >98% purity; details: for CTLA4 MFI at 33.3 nM: CHO cells stably expressing CTLA4; for CTLA4 Fold change to WT CD80: MFI at 33.3 nM relative to CD80 WT IgV-Fc
huCTLA4, sequence (P16410 36-223): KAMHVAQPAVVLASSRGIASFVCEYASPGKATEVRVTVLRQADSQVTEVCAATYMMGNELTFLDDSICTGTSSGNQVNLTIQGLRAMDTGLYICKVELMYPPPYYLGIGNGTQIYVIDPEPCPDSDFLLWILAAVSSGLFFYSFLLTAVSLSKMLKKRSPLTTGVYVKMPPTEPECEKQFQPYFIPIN
Method: (§1) Binding of selected immunomodulatory fusion proteins to cognate binding partners was assessed. […] Cells were sorted in a Bio-Rad S3 Cell Sorter (Bio-Rad Corp., USA) to >98% purity. Jurkat/IL2 reporter cells, which endogenously express CD28, were used to detect binding to CD28.
(§2) For staining and analysis by flow cytometry, 100,000 cells of appropriate transfected cells were plated in 96-well round bottom plates. Cells were spun down and resuspended in staining buffer (phosphate buffered saline (PBS), 1% bovine serum albumin (BSA), and 0.1% sodium azide) for 20 minutes to block non-specific binding. […] Primary staining was performed on ice for 45 minutes, before washing cells in staining buffer twice. Phycoerythrin (PE)-conjugated anti-human Fc (Jackson ImmunoResearch, USA) was diluted 1:150, added to cells and incubated another 30 minutes on ice. Cells were then washed twice with 150 μL/well stain buffer, fixed in 2% formaldehyde/PBS, and analyzed on Intellicyt flow cytometer (Intellicyt Corp., USA). PE Mean Fluorescence Intensity (MFI) was calculated for each cell type with FlowJo Version 10 software (FlowJo LLC, USA).
(§3) Binding assays were carried out to assess the specificity and affinity of multivalent proteins to cell-expressed CTLA-4, CD28, and PD-L1 counter structures.
(§4) The EC50 for binding also was determined.

huPD-L1 = huPD-L1 (Homo sapiens, UniProt Q9NZQ7); assay: Flow binding to CHO cells stably expressing PD-L1; design: huCTLA4 and huPD-L1, full-length mammalian surface expression constructs were generated; expressed in transfected cells; host or cells: CHO cells, lentiviral transduction, sorted to >98% purity; details: for PD-L1 MFI at 33.3 nM: CHO cells stably expressing PD-L1; for PD-L1 Fold change to WT CD80: MFI at 33.3 nM relative to CD80 WT IgV-Fc; for Ratio of PDL1:CD28: ratio of MFI at 33.3 nM
huPD-L1, sequence (Q9NZQ7 19-290): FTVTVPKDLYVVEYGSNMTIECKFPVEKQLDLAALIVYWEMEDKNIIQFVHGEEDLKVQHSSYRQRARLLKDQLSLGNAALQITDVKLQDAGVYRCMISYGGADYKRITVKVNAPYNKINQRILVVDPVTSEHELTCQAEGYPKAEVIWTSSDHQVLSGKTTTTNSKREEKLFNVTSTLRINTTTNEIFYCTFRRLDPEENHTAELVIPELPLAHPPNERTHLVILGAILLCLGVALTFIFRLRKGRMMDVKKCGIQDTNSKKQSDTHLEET
Method: as §1, §2, §3, §4

CD28 [2] = molecular target: T1, CD28; assay: Flow binding to Jurkat/IL2 reporter cells (CD28); design: host or cells: Jurkat cells expressing an IL-2-luciferase reporter; details: for CD28 Fold change to WT CD80: MFI at 33.3 nM relative to CD80 WT IgV-Fc
Method: as §1, §2, §3, §4

[3] = Table E20, Jurkats (CD28), 33.3 nM
[4] = Table E23, CD80 IgV-Fc (inert) at 33.3 nM, Jurkat (CD28)
[5] = Table E23, CD80 IgV-Fc (inert) at 33.3 nM

Substance	Relative Luciferase Units (RLU), CD80 Conc 5.0 nM (CD28 [1]; Table E22, CD80 Conc 5.0 nM) [RLU]	CTLA4 MFI at 33.3 nM (huCTLA4; Table E20, 33.3 nM)	PD-L1 MFI at 33.3 nM (huPD-L1; Table E20, 33.3 nM)	CD28 MFI at 33.3 nM (CD28 [2]; [4])	PD-L1 MFI at 33.3 nM (huPD-L1; [5])	CTLA4 MFI at 33.3 nM (huCTLA4; [5])	also measured
A26E/E35D/M47L/A71G/D90G	1132	22127	14550				
A26E/E35D/M47L/V68M/A71G	1010	24587	27806				
A26E/E35D/M47L/V68M/A71G/D90G	1117	21749	30232				CD28 MFI at 33.3 nM (CD28 [2]; [3]): 2211; CD28 Fold change to WT CD80 (CD28 [2]; Table E20): 50.4 fold; Fold Increase over WT CD80-IgV-Fe (CD28 [1]; Table E22, 5.0 nM): 2.86 fold; CTLA4 Fold change to WT CD80 (huCTLA4; Table E20): 16.0 fold; PD-L1 Fold change to WT CD80 (huPD-L1; Table E20): 693.4 fold; Ratio of PDL1:CD28 (huPD-L1; Table E20): 13.7
A26E/E35D/M47L/V68M/D90G		26698					
A26E/E35D/V68M/A71G/D90G	912	23286	26510				CD28 MFI at 33.3 nM (CD28 [2]; [3]): 2102; CD28 Fold change to WT CD80 (CD28 [2]; Table E20): 47.9 fold; Fold Increase over WT CD80-IgV-Fe (CD28 [1]; Table E22, 5.0 nM): 2.34 fold; CTLA4 Fold change to WT CD80 (huCTLA4; Table E20): 17.1 fold; PD-L1 Fold change to WT CD80 (huPD-L1; Table E20): 608.0 fold; Ratio of PDL1:CD28 (huPD-L1; Table E20): 12.6
A26E/M47L/V68M/A71G/D90G		21807	28139				
CD80 (E88D/K89R/D90K/A91G/F92Y/K93R) ECD-Fc: variant full CD80 ECD fused to effector human IgG1 Fc (SEQ ID NO:1527)							Jurkat/CD28 MFI at 66.7 nM (CD28 [2]; 66.7 nM): 4049; EC50 (CD28 [2]; flow binding, read-out: Jurkat/CD28 EC50): > 200 nM
CD80 WT ECD-Fc				57.8	161		
E35D/M47L/V68M/A71G/D90G		26007	29377				CD28 MFI at 33.3 nM (CD28 [2]; [3]): 3072
Fc Control		37.9	77.1	81	185	194	CD28 MFI at 33.3 nM (CD28 [2]; [3]): 15.4; CTLA4 MFI at 33.3 nM (huCTLA4; Table E19, 33.3 nM): 52; PD-L1 MFI at 33.3 nM (huPD-L1; Table E19, 33.3 nM): 44
H18A/A26N/E35D/M47L/V68M/A71G/D90G				4913	36284	21360	CD28 Fold change to WT CD80 (CD28 [2]; Table E23): 48.2; Fold Increase over WT CD80-IgV-Fe (CD28 [1]; Table E24, 5.0 nM): 6.2; Relative Luciferase Units (RLU), CD80 Conc 5.0 nM (CD28 [1]; Table E24, 5.0 nM): 1054 RLU; CTLA4 Fold change to WT CD80 (huCTLA4; Table E23): 15.4; PD-L1 Fold change to WT CD80 (huPD-L1; Table E23): 219.9; Ratio of PDL1:CD28 (huPD-L1; Table E23): 7.4
H18A/A26P/E35D/M47L/V68M/A71G/D90G				4731	33436	23763	CD28 Fold change to WT CD80 (CD28 [2]; Table E23): 46.4; Fold Increase over WT CD80-IgV-Fe (CD28 [1]; Table E24, 5.0 nM): 5.0; Relative Luciferase Units (RLU), CD80 Conc 5.0 nM (CD28 [1]; Table E24, 5.0 nM): 857 RLU; CTLA4 Fold change to WT CD80 (huCTLA4; Table E23): 17.2; PD-L1 Fold change to WT CD80 (huPD-L1; Table E23): 202.6; Ratio of PDL1:CD28 (huPD-L1; Table E23): 7.1
H18V/A26R/E35D/M47L/V68M/A71G/D90G				9620	73166	23151	
H18V/A26S/E35D/M47L/V68M/A71G/D90G				8063	73884	24919	CD28 Fold change to WT CD80 (CD28 [2]; Table E23): 79.0; Fold Increase over WT CD80-IgV-Fe (CD28 [1]; Table E24, 5.0 nM): 5.2; Relative Luciferase Units (RLU), CD80 Conc 5.0 nM (CD28 [1]; Table E24, 5.0 nM): 883 RLU; CTLA4 Fold change to WT CD80 (huCTLA4; Table E23): 18.0; PD-L1 Fold change to WT CD80 (huPD-L1; Table E23): 447.8; Ratio of PDL1:CD28 (huPD-L1; Table E23): 9.2
H18Y/A26E/E35D/M47L/A71G/D90G	1015						
